Measurements taken from the DeepSol protein solubility set.

Test: soluble on expression in E. coli; label from the status in PepcDB or PDB records
With “MGHHHHHHSHMTNQNVLLNISGVKFVLRIPNAVNLSLINREYEAFNNAQAYRAGLNVETPVLDAKSGVKLTRYLENSNTLSQIQLNEQSCLSQVVNNLYRLHNSEFVFRNVFSVFDEFRQYFSLLENKSAFYQADSRMDKLSAVFWQFEEINKEVILRPCHNDLVPENMLLQDDRLFFIDWEYSGLNDPLFDIATIIEEAHLSKEAADFLLETYCNQTNKYHKTEFQIAHKRLKIHRFCQNVLWFLWTKVKEEHGENFGDYALKRLDAAFKLLEELP” the “soluble on expression in E. coli” value was “soluble”. In the case of “MGHHHHHHSHMVLLHVKRGDESQFLLQAPGSTELEELTVQVARVYNGRLKVQRLCSEMEELAEHGIFLPPNMQGLTDDQIEELKLKDEWGEKCVPSGGAVFKKDDIGRRNGQETSGSRCLCYHGDGERCLGPASRRGDDCLPHGVATV”, the “soluble on expression in E. coli” value is reported as “not soluble”. With “MGHHHHHHSHMWKDFIDHISSLLHSVEVEVSYFAAGIIAHLISRGEQAWTLSRSQRNSLLDDLHSAILKWPTPECEMVAYRSFNPFFPLLGCFTTPGVQLWAVCAMQHVCSKNPSRYCSMLIEEGGLQHLYNIKDHEHTDPHVQQIAVAILDSLEKHIVRHGRPPPCKKQPQARLN” the “soluble on expression in E. coli” value was “not soluble”. For “MGHHHHHHSHMYAEERRRQIASLTAVEGRVNVTELAGRFDVTAETIRRDLAVLDREGIVHRVHGGAVATQSFQTTELSLDTRFRSASSAKYSIAKAAMQFLPAEHGGLFLDAGTTVTALADLISEHPSSKQWSIVTNCLPIALNLANAGLDDVQLLGGSVRAITQAVVGDTALRTLALMRADVVFIGTNALTLDHGLSTADSQEAAMKSAMITNAHKVVVLCDSTKMGTDYLVSFGAISDIDVVVTDAGAPASFVEQLRERDVEVVIAE”, the “soluble on expression in E. coli” value was “soluble”. For “MGHHHHHHSHPAPAQLVQKAHELMWYVLVKDQKKMIIWFPDMVKDVIGSYKKWCRSILRRTSLILARVFGLHLRLTSLHTMEFALVKALEPEELDRVALSNRMPMTGLLLMILSLIYVKGRGARESAVWNVLRILGLRPWKKHSTFGDVRKLITEEFVQMNYLKYQRVPYVEPPEYEFFWGSRASREITKMQIMEFLARVFKKDPQA”, the “soluble on expression in E. coli” value was “not soluble”. With “MGHHHHHHSHPRRLAWCSIDWEQVCLLQRLGAGGFGSVYKATYRGVPVAIKQVNKCTKNRLASRRSFWAELNVARLRHDNIVRVVAASTRTPAGSNSLGTIIMEFGGNVTLHQVIYGAAGHPEGDAGEPHCRTGGQLSLGKCLKYSLDVVNGLLFLHSQSIVHLDLKPANILISEQDVCKISDFGCSEKLEDLLCFQTPSYPLGGTYTHRAPELLKGEGVTPKADIYSFAITLWQMTTKQAPYSGERQHILYAVVAYDLRPSLSAAVFEDSLPGQRLGDVIQRCWRPSAAQRP” the “soluble on expression in E. coli” value was “not soluble”. With “MGHHHHHHSHVAEGQEPAEFWDLLGGKTPYANDKRLQQEILDVQSRLFECSNKTGQFVVTEITDFTQDDLNPTDVMLLDTWDQVFLWIGAEANATEKESALATAQQYLHTHPSGRDPDTPILIIKQGFEPPIFTGWFLAWDPNIWSAGKTYEQLKEELGDAAAIMRITADMKNATLSLNSNDSEPKYYPIAVLLKNQNQELPEDV” the “soluble on expression in E. coli” value was “soluble”. For “MGHHHHHHSHVVAILGMGWGAGTGLEMPSAASRGASLLNMQSLGLWTWDCLQGHWAPLIHLNSGPPSGAMERSPTWGEAAELWGSHILLPFRIRHKQTLFASLK”, the “soluble on expression in E. coli” value was “not soluble”. In the case of “MGHNMMTTQKWYEHITNVIIGNTANFNSGCPESIDYVDEKKGVPLAAMKYILMYTEAAASHAYLFEHDLKKFKQYAYVAGKLGILQSVDDEDPEPFFFPCDMLNIQDPMFLMLMSDSPQLREFLVRNIDNIANDTEAFVNRYDLNRHMIYNTLLMVEGKQLDRLKQRSEKVLAHPTPSKWLQKRLYDYRFFLAFAEQDAEAMKAALEPLFDKKTARMAAKETLSYFDFYLQPQIVTYAKIASMHGFDLGIDHEIAPRDLTVYDPLPADEYQDIFDFMKQYDLSYPYEYLQDWIDYYTFKTDKLVFGNAKRE”, the “soluble on expression in E. coli” value is reported as “not soluble”. With “MGIHRLWKRFTIDCSGVRRGQTVLDLAGGTGDLTAKFSRLVGETGKVVLADINESMLKMGREKLRNIGVIGNVEYVQANAEALPFPDNTFDCITISFGLRNVTDKDKALRSMYRVLKPGGRLLVLEFSKPIIEPLSKAYDAYSFHVLPRIGSLVANDADSYRYLAESIRMHPDQDTLKAMMQDAGFESVDYYNLTAGVVALHRGYKLEHHHHHH” the “soluble on expression in E. coli” value was “not soluble”. For “MGIRPSADEQDQCFMTRITIVTDAWHPQVNGVVRSIENTNTELARLGVDVRMVTPQSFYSIPCPTYPEIRLSVAGYRRVAVEIEKSQPSFVHIATEGPLGFMARRWCVKNHMRFSTSYHTRFPEYVAARFPVPESWLYAFVRWFHNGGNTCMVATPSLETELEARGVRNLKRWSRGIDAELFHPRTKTKLPFDLPRPIFMTVGRVAVEKNLPEFLDLDLPGSKIVIGDGPARYELQEKYPDVLFTGIKTGEELADAYAQADVFVFPSKTDTFGNTILEALASGVPVAAFPVTGPIDILGGNPAAGALDNNLRDACLAALHCSPQAALALSKSYSWEKASRQFLDNVIHAAGKSLPLLSRSRLAAAALEHHHHHH”, the “soluble on expression in E. coli” value was “not soluble”. With “MGKEKVHINIVVIGHVDSGKSTTTGHLIYKCGGIDKRTIEKFEKEAQEMGKGSFKYAWVLDKLKAERERGITIDIALWKFETAKYYITIIDAPGHRDFIKNMITGTSQADCAVLVVACNKMDSTEPPFSEARFTEITNEVSGFIKKIGYNPKAVPFVPISGFNGDNMLEVSSNMPWFKGWAVERKEGNASGKTLLEALDSIIPPQRPTDRPLRLPLQDVYKIGGIGTVPVGRVETGIIKPGMVVTFAPQNVTTEVKSVEMHHESLPEAVPGDNVGFNVKNVSVKDIRRGSVCSDSKQDPAKEARTFHAQVIIMNHPGQISNGYTPVLDCHTAHIACKFNELKEKVDRRTGKKVEDFPKFLKSGDAGIVELIPTKPLCVESFTDYAPLGRFAVRDMRQTVAVGVIKSVEKSDGSSGKVTKSAQKAAPKKK” the “soluble on expression in E. coli” value was “not soluble”. In the case of “MGKKELKRGLVVDREAQMIGVYLFEDGKTYRGIPRGKVLKKTKIYAGDYVWGEVVDPNTFAIEEVEERKNLLIRPKVANVDRVIIVETLKMPEFNNYLLDNMLVVYEYFKVEPVIVFNKIDLLNEEEKKELERWISIYRDAGYDVLKVSAKTGEGIDELVDYLEGFICILAGPSGVGKSSILSRLTGEELRTQEVSEKTERGRHTTTGVRLIPFGKGSFVGDTPGFSKVEATMFVKPREVRNYFREFLRYQCKYPDCTHTNEPGCAVKEAVKNGEISCERYKSYLKIIKVYLEEIKELCRED”, the “soluble on expression in E. coli” value is reported as “soluble”. For “MGKKRKHQDSDSEQSGKRVKKVEEARNGVADMTIDESSDFQVFLIKKPIGVSLEDLEALKWSNDEEVLTKTKLKTESGVFRAIVAPKSKKERMVHIPAFREREEADSKNIKAQSFVTGAITILPQEVKPKVLGGFIYEEGEEPVEGSSEVHPGLKKIKKTAILDLESRQQRNKAYGTTTEGDGKPRKLANIIEKMN”, the “soluble on expression in E. coli” value was “soluble”. With “MGKMIPYVIDLDAIFDLSSIEIYRLLTSSLSNVRYYPPKDLLKTVINDFDISKFKPFPDSQYLEELNYRARIYVITNLPKIEAKLLLVRYNLDAFIQDVISPEDINRYFPSKEVLVLISRKTNSPLGSITFITPHIDYAILTSNLGMRTILIRNSISLPRDIRVEIRKSLVELAEITAQHKIDSEAGDSALRCQ” the “soluble on expression in E. coli” value was “not soluble”. In the case of “MGKNEILWGIAPIGWRNDDMPEIGAGNTLQHLLSDIVVARFQGTEVGGFFPEPAILNKELKLRNLRIAGKWFSSFILRDGLGEAAKTFTLHCEYLQQVNADVAVVSEQTYSVQSLEKNVFTEKPHFTDDEWERLCEGLNHLGEIAAQHGLKLVYHHHLGTGVQTAEEVDRLMAGTDPAHVHLLYDTGHAYISDGDYMGMLEKHIGRIKHVHFKDARLNVMEQCRLEGQSFRQSFLKGMFTVPGDGCIDFREVYQLLLKHSYSGWIVIEAEQDPDVANPLEYALIARNYIDQQLLDLALEHHHHHH”, the “soluble on expression in E. coli” value is reported as “not soluble”. With “MGKRMTFDTAKSRFQEKFPHLELLEFSGIYKPSSVRCPTHGVVQLLYYDTAIKSKYGCPECGKLKMKENTPPQNQKPVSILDTATGETLTFPSVQAAAKALNTPYGSIRTKLDGRSNPDNLVCNRYKVLL” the “soluble on expression in E. coli” value was “soluble”. With “MGKRVLIVDDAAFMRMMLKDIITKAGYEVAGEATNGREAVEKYKELKPDIVTMDITMPEMNGIDAIKEIMKIDPNAKIIVCSAMGQQAMVIEAIKAGAKDFIVKPFQPSRVVEALNKVSK” the “soluble on expression in E. coli” value was “soluble”. With “MGLEDDFLLEDADDEKTVEFIKNYLPQELKEKFEDDELYYFLDLIDEYYSESGILDAQPDNDGYVNIDLEEVVAYIVKEAKKDEMGEYDPEEILFVVQGEMEYGNSLGQVD” the “soluble on expression in E. coli” value was “not soluble”.
